Results: the supplement of paper PMC11246515
± gives the standard deviation of the averaged measurements.

Test: total protein half-life in vivo (active degradation + dilution); higher = more stable protein
[1] = E. coli NCM3722 delta-clpP delta-lon delta-hslV, growth: N-lim chemostat, doubling time 6 h
[2] = E. coli NCM3722 delta-clpP, growth: N-lim chemostat, doubling time 6 h
[3] = E. coli NCM3722 delta-hslV, growth: N-lim chemostat, doubling time 6 h
[4] = E. coli NCM3722 delta-lon, growth: N-lim chemostat, doubling time 6 h
[5] = E. coli NCM3722 delta-smpB, growth: N-lim chemostat, doubling time 6 h
[6] = wild type E. coli NCM3722, growth: C-lim chemostat, doubling time 6 h
[7] = wild type E. coli NCM3722, growth: C-lim chemostat, doubling time 12 h
[8] = wild type E. coli NCM3722, growth: N-lim chemostat, doubling time 6 h
[9] = wild type E. coli NCM3722, growth: N-lim chemostat, doubling time 12 h
[10] = wild type E. coli NCM3722, growth: P-lim chemostat, doubling time 6 h
[11] = wild type E. coli NCM3722, growth: P-lim chemostat, doubling time 12 h
[12] = wild type E. coli NCM3722, growth: C-lim chemostat, doubling time 3 h

Sequence | total protein half-life in vivo [1] [h] | total protein half-life in vivo [2] [h] | total protein half-life in vivo [3] [h] | total protein half-life in vivo [4] [h] | total protein half-life in vivo [5] [h] | total protein half-life in vivo [6] [h] | total protein half-life in vivo [7] [h] | total protein half-life in vivo [8] [h] | total protein half-life in vivo [9] [h] | total protein half-life in vivo [10] [h] | total protein half-life in vivo [11] [h] | total protein half-life in vivo [12] [h]
MAITGIFFGSDTGNTENIAKMIQKQLGKDVADVHDIAKSSKEDLEAYDILLLGIPTWYYGEAQCDWDDFFPTLEEIDFNGKLVALFGCGDQEDYAEYFCDALGTIRDIIEPRGATIVGHWPTAGYHFEASKGLADDDHFVGLAIDEDRQPELTAERVEKWVKQISEELHLDEILNA | 5.32 ± 1.2 | 5.07 ± 0.65 | 4.45 ± 0.27 | 4.59 ± 0.44 | 4.64 ± 0.75 | 5.31 ± 0.73 | 7.02 ± 3 | 4.71 ± 0.14 | 8.16 ± 0.92 | 6.33 ± 0.46 | – | –
MAKEDNIEMQGTVLETLPNTMFRVELENGHVVTAHISGKMRKNYIRILTGDKVTVELTPYDLSKGRIVFRSR | 5.28 ± 0.3 | 4.92 ± 1.1 | 4.49 ± 0.57 | 4.94 ± 0.23 | 5.4 ± 0.28 | 5.34 ± 0.62 | 8.41 ± 0.61 | 4.58 | 8.98 ± 0.12 | 4.93 ± 1.6 | 9.85 ± 0.75 | –
MAKEFGRPQRVAQEMQKEIALILQREIKDPRLGMMTTVSGVEMSRDLAYAKVYVTFLNDKDEDAVKAGIKALQEASGFIRSLLGKAMRLRIVPELTFFYDNSLVEGMRMSNLVTSVVKHDEERRVNPDDSKED [P0A7G2] | – | 4.7644 ± 0.0036 | 4.43 ± 0.063 | 5.76 ± 0.31 | 4.56 ± 0.23 | 5.38 ± 0.84 | 10.3 ± 0.93 | 4.6 ± 0.22 | 7.76 ± 0.5 | 4.66 ± 0.12 | 8.771 ± 0.013 | 2.87 ± 0.079
MAKEKKRGFFSWLGFGQKEQTPEKETEVQNEQPVVEEIVQAQEPVKASEQAVEEQPQAHTEAEAETFAADVVEVTEQVAESEKAQPEAEVVAQPEPVVEETPEPVAIEREELPLPEDVNAEAVSPEEWQAEAETVEIVEAAEEEAAKEEITDEELETALAAEAAEEAVMVVPPAEEEQPVEEIAQEQEKPTKEGFFARLKRSLLKTKENLGSGFISLFRGKKIDDDLFEELEEQLLIADVGVETTRKIITNLTEGASRKQLRDAEALYGLLKEEMGEILAKVDEPLNVEGKAPFVILMVGVNGVGKTTTIGKLARQFEQQGKSVMLAAGDTFRAAAVEQLQVWGQRNNIPVIAQHTGADSASVIFDAIQAAKARNIDVLIADTAGRLQNKSHLMEELKKIVRVMKKLDVEAPHEVMLTIDASTGQNAVSQAKLFHEAVGLTGITLTKLDGTAKGGVIFSVADQFGIPIRYIGVGERIEDLRPFKADDFIEALFARED | 5.949 ± 0.013 | 6.16 ± 0.62 | 6.29 ± 0.82 | 5.53 ± 0.3 | 5.61 ± 0.034 | 5.835 ± 0.012 | 11.1 ± 1.8 | 5.94 ± 0.28 | 10.7 ± 0.25 | 5.64 ± 0.21 | 11.92 ± 0.0035 | 3.038 ± 0.019
MAKERALTLEALRVMDAIDRRGSFAAAADELGRVPSALSYTMQKLEEELDVVLFDRSGHRTKFTNVGRMLLERGRVLLEAADKLTTDAEALARGWETHLTIVTEALVPTPAFFPLIDKLAAKANTQLAIITEVLAGAWERLEQGRADIVIAPDMHFRSSSEINSRKLYTLMNVYVAAPDHPIHQEPEPLSEVTRVKYRGIAVADTARERPVLTVQLLDKQPRLTVSTIEDKRQALLAGLGVATMPYPMVEKDIAEGRLRVVSPESTSEIDIIMAWRRDSMGEAKSWCLREIPKLFNGK | 5.43 ± 0.44 | 5.71 ± 0.84 | 5.26 ± 0.14 | 5.85 ± 0.25 | 5.34 ± 0.25 | 5.658 ± 0.043 | 11.2 ± 0.74 | 5.54 ± 0.4 | 10.9 ± 0.25 | 6.09 ± 0.32 | 11.5 ± 0.97 | 3.01 ± 0.2
MAKIKGQVKWFNESKGFGFITPADGSKDVFVHFSAIQGNGFKTLAEGQNVEFEIQDGQKGPAAVNVTAI [P0A9Y6] | 4.07 ± 0.35 | 3.26 ± 0.19 | 2.88 ± 0.095 | 3.98 ± 0.54 | 2.65 ± 0.03 | 3.23 ± 0.29 | 5.61 ± 1.2 | 2.83 ± 0.21 | 3.96 ± 0.13 | 2.94 ± 0.28 | 5 ± 1.2 | 2.24 ± 0.71
MAKNIPFKLILEKAKDYQADMTRFLRDMVAIPSESCDEKRVVHRIKEEMEKVGFDKVEIDPMGNVLGYIGHGPRLVAMDAHIDTVGIGNIKNWDFDPYEGMETDELIGGRGTSDQEGGMASMVYAGKIIKDLGLEDEYTLLVTGTVQEEDCDGLCWQYIIEQSGIRPEFVVSTEPTDCQVYRGQRGRMEIRIDVQGVSCHGSAPERGDNAIFKMGPILGELQELSQRLGYDEFLGKGTLTVSEIFFTSPSRCAVADSCAVSIDRRLTWGETWEGALDEIRALPAVQKANAVVSMYNYDRPSWTGLVYPTECYFPTWKVEEDHFTVKALVNAYEGLFGKAPVVDKWTFSTNGVSIMGRHGIPVIGFGPGKEPEAHAPNEKTWKSHLVTCAAMYAAIPLSWLATE | – | – | 3.34 ± 0.23 | > 8 | 3.6 | 5.23 ± 1.1 | 8.78 ± 0.98 | 3.7 ± 0.69 | 6.26 ± 0.46 | 5.23 | 9.14 ± 1.7 | 2.93 ± 0.037
MAKNRSRRLRKKMHIDEFQELGFSVAWRFPEGTSEEQIDKTVDDFINEVIEPNKLAFDGSGYLAWEGLICMQEIGKCTEEHQAIVRKWLEERKLDEVRTSELFDVWWD | 5.96 ± 0.18 | 6.44 ± 1.1 | 6.42 ± 0.59 | 6.34 ± 0.93 | 5.56 ± 0.31 | 5.41 ± 0.22 | 9.8 ± 0.27 | 5.26 | 12.6 ± 0.72 | 5.22 ± 0.22 | 11.7 ± 0.92 | 3.43 ± 0.076
